Laboratory results as given in a protein production outcome set (Wang et al. 2014).

Experiment: label from the status in PepcDB records

Row | Sequence | protein production
1 | MKFGETFDMVLSDVRGKKIHASVKREHLNRFERLIVPGEWRAIENFGLTYATGQFKATDHRYKMGFMAQTRVVRIDPLSDSYFLSLTAFNDVLNGGLNQNYLIDVVGQIVNVGEMETIDVHNQPTKKIDFELRDQKDERLPCTLWGSFAEQVFTACEAANGEMIICLVRFAKLKTYKDVRSISNAFNTSQILINPDLPEILEFKDALPKDCLALTLIESKPKSKIDEFPTGDFYLQFAKKTIKEVSEMFDVGRVKVLCTIYDIDRDWSWYYIVCKKCNKKVTKVVMTSLKAQLWCETCRAPITNVLARYKLHVKVMDSSGEMKLMLFDAMSSEIVGCPANNLLDGSFDEIEDPDILPDSIKNLIGKTYQYLVCVENENKRYQMHDSIDQCSLMLTYSEEPSEATTPSSKRSSDTSISPADNFSTTKKLCLDSIKIVKIKQEMVEKNNEAKVVGEKLNF | failed
2 | MSRVPGWLGRLGAGLTRASERLEQRREEARRDDADDGPGPVSDHERRPLDDTAEDSAVEHLAAHRPVALAHRPDPAQAVPWGVRVAAEAGWRLLVLAGTVWVLMRVISAVQLVVLAFVAALLITALLQPAVAWLRRHGVPRGPATALTAILGFVVMGLIGWFVTWQVMENIDNLSDQVQDGIDELRNWLLNSPFHVTDKQINEIAKNLRDAVGANTDQITSAGLEGVTVVVEALTGILLAAFSTLFLLYDGKRIWQWSLKLVPAAARPGVAGAGPRAWRTLTAYVRGTVIVALIDAIFIGLGIYFLDVPMAVPLAVFIFLFAFIPLVGAVVSGALAVVVALVTQGVFAAVMTLVVVLAVQQIEGHILQPFILGRAVRVHPLAVVLSVAAGGMVAGIGGAVVAVPLVAVTNTVVGYLRAYSREAALRRTPRPHGATSTDAAPAVDRVPGPPKPPAPPADGPPSDAP | failed
3 | MLDNLQLTDILATVAVLVSITFLIYFAGKTLITANSFQKGVSLYQQKDYPGAEAAFRKVIAINSTNDVVRLFLGDVLREQGKVAEATELFQEVINRSPKNPQGYLRLATILMQQEKQAEAKTNLQKAQELLQKQRQPETAKRVAKLLEQMNTKTI | failed
4 | MEITTLQIVLIFIVACVSGMGSILDEFQFHRPLVACTLIGAVLGDLKTGIIIGGTLEMIALGWMNIGAAVAPDAALASIISTILVIAGGQGIGAGIALAIPLAAAGQVLTIIVRTITVAFQHAADSAAERGNLTAISWIHVSALLLQAMRIAIPAVIVAVSVGTDTVHALLNSIPDVVTNGLNIAGGMIVVVGYAMVINMMRAGYLMPFFYLGFVTAAFTEFNLVALGVIGIVMAVLYIQLSPKYNKVQGQSVTSGNNGLDNELD | failed
5 | MIIETERLLLRPFNEQDVDALYLMNSNPAMLKYIPTAPFTDREQARELFHNVILQDYQQRGFGRWAVEHKADNRVIGFCGPKFIPEFNEVEIGYRYFPEYWGKGIGTEAAEAALSVFPQFGIKQTIALILEGNLGSETVAKRVGMYWREHSEFMGHKINVYAKIL | failed
6 | MPLRLPPMLPSVDTSEELDAMVRDEALLRPAAQDLCAHLGLTGARLVRFDDGSLPVYAVGGTLVLKLFPGFEAAEGVREARVLSHLWGQLPVPTPRLHAGEMYKNGWRYVLMSRLPGVSLSTAWSRIPAVEQDRIVDEAAETLAALHSVDWKPLADVVGPADWGTFLRRQRAGVLEHHRAAGLPKPWLDQIPGFLDAVRLPASGERVLLHTEFMREHLTVDPQDGWRLTGLFDFEPAMIGDPAYDFVSVGLFMSRGDPRLLRRFYQAYGRPPHDPYQLLAYTLLHVYSDLAWYLREMPAPPHPRLDALAETWFGTDG | failed
7 | GHFPRACVSSKNLMEKECCPPWSGDRSPCGQLSGRGSCQNILLSNAPLGPQFPFTGVDDRESWPSVFYNRTCQCSGNFMGFNCGNCKFGFWGPNCTERRLLVRRNIFDLSAPEKDKFFAYLTLAKHTISSDYVIPIGTYGQMKNGSTPMFNDINIYDLFVWMHYYVSMDALLGGSEIWRDIDFAHEAPAFLPWHRLFLLRWEQEIQKLTGDENFTIPYWDWRDAEKCDICTDEYMGGQHPTNPNLLSPASFFSSWQIVCSRLEEYNSHQSLCNGTPEGPLRRNPGNHDKSRTPRLPSSADVEFCLSLTQYESGSMDKAANFSFRNTLEGFASPLTGIADASQSSMHNALHIYMNGTMSQVQGSANDPIFLLHHAFVDSIFEQWLRRHRPLQEVYPEANAPIGHNRESYMVPFIPLYRNGDFFISSKDLGYDYSYLQDSDPDSFQDYIKSYLEQASRIWSWLLGAAMVGAVLTALLAGLVSLLCRHKRKQLPEEKQPLLMEKEDYHSLYQSHL | failed
8 | MGHHHHHHSHLSPDRRASLLTSLMLVKRDYRYDRVLFWGRILGLVADYYIAQGLSEDQLAPRKTLYSLNCTEWSLLPPATEEMVAQSSVVKGRFMGDPSYEYEHTELQKVNEGEKVFEEEIVVQIKEETRLVSVIDQIDKAVAIIPRGALFKTPFGPTHVNRTFEGLSLSEAKKLSSYFHFREPVELKNKTLLEKADLDPSLDFMDSLEHDIPKGSWSIQMERGNALVVLRSLLWPGLTFYHAPRTKNYGYVYVGTGEKNMDLPFML | failed
9 | MASSTDQNLMDLSDKDTREKLSFWDRRVDPMAPLTDRQTDSILELRAAAEETLLPAELPIEDICSLSSRSLRSSFTAALPESTEEVLLQGFQMLELHNHRIETAQQFFSWFSKLQVQMDQDEASKYRKTRDVLNGYQEQCDAILNDVNTALDHLDSLQKQYLFVSTKTGTLHEACEQLLKEQSELVDLAESIQEKLSYFNELENINTKLNSPTLSVNSEGFVPMLSKLDECIEYVSSHPNFKDYPVYLTKFKQCLSKAMQLIKSHTVNTLQNLTGQLSKRDPLGAPSA | failed
10 | MIGKTVIVGSKNMKEKILKFITSKFFVLGIQLLATIAVVYFTFKLDLVPTKYLIAGIVVLALLLAGFFGIIYSSEQKIKKGLSSKRGIVTKIISLLTSIILIAGCTYISRGNNFIENVSNATGQEYVVSVISLKNGKITKLKDLDSSKKIGVSYEKDTVTIAEALKDLDTEIGDHEYTKYDNYASLADALYEGKVDAIVVGEQYRTMLQTNHEEFNDVTKVLKSYAYDAKMEVTTKQTDVTENAFSIYVTGIDVYGSLKTVSRSDVNLIVTVNPKTKQILMTSIPRDCQINLHKNGKMDKLTHTGIYGTSETINTIQDLLEMKINYFARTNFSGMTNIVDALGGITVNSSEAFETLHGNYQISEGLNEMDGDKALCFVRERKRLKRGDFARGENQQKVLKAMLDKAMSPKIITNFNNILSAVEGCFETDMSDKEIKSLINMQLNDMADWKIINVQIEGEYQLMDDTFSMKGTNSDVMIPFESHIERVRELINKVEEGKEIKDSELKGLTH | failed
11 | MIWRGEKLISNKVKIVRLLNKSKKSLLRGIFSRTTVIAILLILQLLFLLASYSWLEQYRVWLATVEHILTIGAVLYLVNSEMDALSRVTWLILVMIAPLLGAMFLMYTKFDWGYRGLKQRLETLIDESQIYLEDDPETLNQLKSSTSTTYHLVQYFEKAHGNFPVYRNTDVTFLPTGEAFFEKMKEELLKAKKYIFLEFFIIDEGIMWGEILSILEQKVEEGVEVRILYDGMIEITKLSFDYTKRLEKIGIKAKAFSPISPFISTYYNYRDHRKIVVIDGVVGMTGGVNLADEYINHIELFGHWKDSGIMLKGKAVDSFLLLFLQMWSITEEKMLVAPYLGVHDDLVENEGYVIPYGDSPLDTDKVGENVYIDILNHAREYVYIMTPYLILDSELEHAIQFAAERGVDVRIIMPGIPDKPIPYALAKTYYQALTKSGVKIYEYTLGFVHSKIFLSDNTKAVVGTINLDYRSLYHHFECAVYLYKVDAIQDIYRDYMDTLNKSRLVSLKDINNIPKFQKVIGIVTKTIAPLL | failed
12 | MKRLIAATLVAAMGVSLLTGCGVSNKSHDNTQVGTTENSSDKAKNKEVKMHVWCSKDDVDITTQMIESFKEANKGTDFNIIIEESEDSDARDNILSNVHNGADVFPIADDQITSMVAGGALYEIEDVDAVKKANDESAVEAATIDGKLYGYPLTADNGYFMYYNKNYFSDSDVATLDGMLDIAGANGKYLTMDWSSGWYLYSFFGNTGLDFGVNDDGVTNHCNWNAIITDIKGVDIAQAMLDIAAKPGFKNCVQDDFIAGVQDGSIIAGVSGCWNAAKIKELWGDDYGAVKLPTYTCAGQQIQMSSFKGYKYMAVNAYTKYPEWANKLAQWFTNEDNQKLRFEMKNVGPANKAAAADDAVKKVPAIMAVMDQAQYGKLQRVGNSYWDAATEFGEKMAAGNPDNTDLQEIMDNLVAGITQSVAE | failed
13 | MNALVAHNSEAWDKKVETGNEWTVAVEQQVIEQAKKGNWDIRVTPMKDVPKDWFPPIKGLKVLCLASGGGQQGPVLAAAGADVTVLDNSEKQLNQDRMIAERDGLTIHTVKGSMDDLSVFNDESFDVIVHPVANVFVENVLPVWKEAYRVLKRNGILISGFVNPVVFLFDTVLEQQGVLKVKHSIPYADPEDLPKHKVKELIENNEALEFGHSLEDQIKGQIDAGFIVTGFYEDKGGFVLDQYIHTYSATRSVKVLEHHHHHH | not failed
